Values quoted from earlier work in patent US20160114005A1, “HYBRID PROTEIN THAT CONVERTS ARACHIDONIC ACID INTO PROSTACYCLIN” (UNIVERSITY OF HOUSTON SYSTEM, priority 2006, published 2016).
Values joined by “and” are separate entries in the source; they are usually repeats but may differ in a detail not shown here. Identical values can stand only once. Like-named read-outs stand apart in the source and are kept apart here.

COX2: Individual cyclooxygenase isoform-2 enzyme [reference compound]
Km (individual COX2, previously characterized by several groups): 6.5 µM and 0.9 µM

B1: PGIS: Individual prostacyclin synthase enzyme (protein, UniProt Q16647 1-500, looked up)
Prostacyclin synthase: MAWAALLGLLAALLLLLLLSRRRTRRPGEPPLDLGSIPWLGYALDFGKDAASFLTRMKEKHGDIFTILVGGRYVTVLLDPHSYDAVVWEPRTRLDFHAYAIFLMERIFDVQLPHYSPSDEKARMKLTLLHRELQALTEAMYTNLHAVLLGDATEAGSGWHEMGLLDFSYSFLLRAGYLTLYGIEALPRTHESQAQDRVHSADVFHTFRQLDRLLPKLARGSLSVGDKDHMCSVKSRLWKLLSPARLARRAHRSKWLESYLLHLEEMGVSEEMQARALVLQLWATQGNMGPAAFWLLLFLLKNPEALAAVRGELESILWQAEQPVSQTTTLPQKVLDSTPVLDSVLSESLRLTAAPFITREVVVDLAMPMADGREFNLRRGDRLLLFPFLSPQRDPEIYTDPEVFKYNRFLNPDGSEKKDFYKDGKRLKNYNMPWGAGHNHCLGRSYAVNSIKQFVFLVLVHLDLELINADVEIPEFDLSRYGFGLMQPEHDVPVRYRIRP
Km (individual PGIS, previously characterized by several groups): 13.3 µM and 30 µM and 9.5 µM
